The text below walks through data of patent US20250136710A1.

Assay [1] has as its target human PVRIG expressed on cells (human) (UniProt Q6DKI7). Kind of assay: FACS; Jurkat cells.
For assay [2] the target is unchanged. As to the kind of experiment: FACS.
Assay [3] has as its target mouse PVR protein, recombinant (mouse). Kind of assay: SPR / ELISA with recombinant proteins. Background: ELISA stands for enzyme-linked immunosorbent assay.

Usually Kd stands for the concentration at which binding is half-saturated. A high value points to a looser complex.

Chain of human PVRIG expressed on cells (human) (Q6DKI7 41-326): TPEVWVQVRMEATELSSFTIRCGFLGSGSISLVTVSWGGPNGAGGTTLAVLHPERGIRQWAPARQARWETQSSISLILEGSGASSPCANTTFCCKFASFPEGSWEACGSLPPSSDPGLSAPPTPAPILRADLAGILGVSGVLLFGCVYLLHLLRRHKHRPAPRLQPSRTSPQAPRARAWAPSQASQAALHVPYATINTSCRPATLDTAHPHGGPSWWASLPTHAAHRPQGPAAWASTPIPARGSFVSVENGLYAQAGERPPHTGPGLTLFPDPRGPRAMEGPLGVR

PVRIG (COM701): the results for the Kd in assay [1] and in assay [2] were 0.15 nM and 0.298 nM, respectively.

In the case of mouse PVRIG Fc (Fc fusion), in assay [3], the fold lower affinity than the interaction with mPVRL2 came out at 10 fold.
